Our source for the degradation_or_half_life values is paper PMC9647470.

This data set in a line: cycloheximide chase, endogenous CK2α, HEK293T. To be noted: glycan lost; control: untreated.

B1: Casein kinase 2 alpha (CK2α): OSMI-4b (protein)
parent chain: MSGPVPSRARVYTDVNTHRPREYWDYESHVVEWGNQDDYQLVRKLGRGKYSEVFEAINITNNEKVVVKILKPVKKKKIKREIKILENLRGGPNIITLADIVKDPVSRTPALVFEHVNNTDFKQLYQTLTDYDIRFYMYEILKALDYCHSMGIMHRDVKPHNVMIDHEHRKLRLIDWGLAEFYHPGQEYNVRVASRYFKGPELLVDYQMYDYSLDMWSLGCMLASMIFRKEPFFHGHDNYDQLVRIAKVLGTEDLYDYIDKYNIELDPRFNDILGRHSRKRWERFVHSENQHLVSPEALDFLDKLLRYDHQSRLTAREAMEHPYFYTVVKDQARMGSSSMPGGSTPVSSANMMSGISSVPTPSPLGPLAGSPVIAAANPLGMPVPAAAGAQQ
With B1, the degradation_or_half_life entry is reported as “no change”.
